These results are taken from the Human Domainome abundance scans (Beltran et al. 2025).

± gives the uncertainty stated by the source.

To fix the notation:
B1: Cullin-9, residues 2234 to 2275; numbered along this chain, Q8IWT3 (parent)
chain: KRCPSCQAPIEKNEGCLHMTCAKCNHGFCWRCLKSWKPNHKD

In this data set the parent is B1. Description: abundance fitness (aPCA) (normalised: wild type 0, dead -1); higher = more abundant; growth selection in yeast, the domain comes from the species named. The settings on record: Homo sapiens.
Take KRCPSCQAPIEKNCGCLHMTCAKCNHGFCWRCLKSWKPNHKD [E14C]: the abundance fitness is -0.001 ± 0.13.
As to KRCPSCQAPIEKNDGCLHMTCAKCNHGFCWRCLKSWKPNHKD [E14D], the abundance fitness was -0.084 ± 0.16.
In the case of KRCPSCQAPIEKNTGCLHMTCAKCNHGFCWRCLKSWKPNHKD [E14T], the abundance fitness is -0.12 ± 0.15.
In the case of KRCPSCQAPIEKNFGCLHMTCAKCNHGFCWRCLKSWKPNHKD [E14F] it was -0.492 ± 0.2; in that of KRCPSCQAPIEKNPGCLHMTCAKCNHGFCWRCLKSWKPNHKD [E14P], -0.011 ± 0.16; in that of KRCPSCQAPIEKNWGCLHMTCAKCNHGFCWRCLKSWKPNHKD [E14W], -0.362 ± 0.14.
With KRCPSCQAPIEKNQGCLHMTCAKCNHGFCWRCLKSWKPNHKD [E14Q] the figure was -0.132 ± 0.13; with KRCPSCQAPIEKNAGCLHMTCAKCNHGFCWRCLKSWKPNHKD [E14A], -0.001 ± 0.087; with KRCPSCQAPIEKNSGCLHMTCAKCNHGFCWRCLKSWKPNHKD [E14S], -0.047 ± 0.1.
In the case of KRCPSCQAPIEKNRGCLHMTCAKCNHGFCWRCLKSWKPNHKD [E14R] it was -0.369 ± 0.091.
On to KRCPSCQAPIEKNLGCLHMTCAKCNHGFCWRCLKSWKPNHKD [E14L], for which the abundance fitness is -0.411 ± 0.12.
In the case of KRCPSCQAPIEKNMGCLHMTCAKCNHGFCWRCLKSWKPNHKD [E14M] it was 0.121 ± 0.23; in that of KRCPSCQAPIEKNNGCLHMTCAKCNHGFCWRCLKSWKPNHKD [E14N], -0.219 ± 0.24; in that of KRCPSCQAPIEKNGGCLHMTCAKCNHGFCWRCLKSWKPNHKD [E14G], -0.071 ± 0.087.
With KRCPSCQAPIEKNECCLHMTCAKCNHGFCWRCLKSWKPNHKD [G15C] the figure was -0.113 ± 0.33; with KRCPSCQAPIEKNERCLHMTCAKCNHGFCWRCLKSWKPNHKD [G15R], -0.096 ± 0.092; with KRCPSCQAPIEKNEECLHMTCAKCNHGFCWRCLKSWKPNHKD [G15E], 0.045 ± 0.097.
With KRCPSCQAPIEKNEMCLHMTCAKCNHGFCWRCLKSWKPNHKD [G15M] the figure was -0.576 ± 0.17; with KRCPSCQAPIEKNELCLHMTCAKCNHGFCWRCLKSWKPNHKD [G15L], -0.515 ± 0.17; with KRCPSCQAPIEKNETCLHMTCAKCNHGFCWRCLKSWKPNHKD [G15T], -0.698 ± 0.17.
Turning to KRCPSCQAPIEKNEKCLHMTCAKCNHGFCWRCLKSWKPNHKD [G15K], the abundance fitness is -0.294 ± 0.15.
With KRCPSCQAPIEKNEACLHMTCAKCNHGFCWRCLKSWKPNHKD [G15A] the figure was -0.003 ± 0.1; with KRCPSCQAPIEKNESCLHMTCAKCNHGFCWRCLKSWKPNHKD [G15S], -0.362 ± 0.11; with KRCPSCQAPIEKNEPCLHMTCAKCNHGFCWRCLKSWKPNHKD [G15P], -0.259 ± 0.12.
With KRCPSCQAPIEKNEHCLHMTCAKCNHGFCWRCLKSWKPNHKD [G15H], the abundance fitness is -0.492 ± 0.17.
In the case of KRCPSCQAPIEKNEQCLHMTCAKCNHGFCWRCLKSWKPNHKD [G15Q] it was -0.777 ± 0.21; in that of KRCPSCQAPIEKNEWCLHMTCAKCNHGFCWRCLKSWKPNHKD [G15W], -0.176 ± 0.1; in that of KRCPSCQAPIEKNEGCWHMTCAKCNHGFCWRCLKSWKPNHKD [L17W], -0.169 ± 0.099.
Turning to KRCPSCQAPIEKNEGCKHMTCAKCNHGFCWRCLKSWKPNHKD [L17K], the abundance fitness was -0.862 ± 0.17.
Regarding KRCPSCQAPIEKNEGCIHMTCAKCNHGFCWRCLKSWKPNHKD [L17I], the abundance fitness was -0.267 ± 0.2.
For KRCPSCQAPIEKNEGCTHMTCAKCNHGFCWRCLKSWKPNHKD [L17T], the abundance fitness was -0.236 ± 0.12.
As for KRCPSCQAPIEKNEGCYHMTCAKCNHGFCWRCLKSWKPNHKD [L17Y], the abundance fitness turned out to be 0.383 ± 0.29.
Take KRCPSCQAPIEKNEGCMHMTCAKCNHGFCWRCLKSWKPNHKD [L17M]: the abundance fitness was -0.071 ± 0.13.
With KRCPSCQAPIEKNEGCPHMTCAKCNHGFCWRCLKSWKPNHKD [L17P] the figure was -0.047 ± 0.12; with KRCPSCQAPIEKNEGCNHMTCAKCNHGFCWRCLKSWKPNHKD [L17N], -0.858 ± 0.21.
Consider KRCPSCQAPIEKNEGCRHMTCAKCNHGFCWRCLKSWKPNHKD [L17R], for which the abundance fitness is -0.614 ± 0.085.
Turning to KRCPSCQAPIEKNEGCAHMTCAKCNHGFCWRCLKSWKPNHKD [L17A], the abundance fitness was -0.053 ± 0.079.
In the case of KRCPSCQAPIEKNEGCGHMTCAKCNHGFCWRCLKSWKPNHKD [L17G] it was -0.062 ± 0.075.
In the case of KRCPSCQAPIEKNEGCDHMTCAKCNHGFCWRCLKSWKPNHKD [L17D], the abundance fitness was -0.006 ± 0.14.
With KRCPSCQAPIEKNEGCSHMTCAKCNHGFCWRCLKSWKPNHKD [L17S] the figure was -0.186 ± 0.12; with KRCPSCQAPIEKNEGCCHMTCAKCNHGFCWRCLKSWKPNHKD [L17C], -0.209 ± 0.25.
Regarding KRCPSCQAPIEKNEGELHMTCAKCNHGFCWRCLKSWKPNHKD [C16E], the abundance fitness amounted to 0.507 ± 0.082.
Regarding KRCPSCQAPIEKNEGKLHMTCAKCNHGFCWRCLKSWKPNHKD [C16K], the abundance fitness amounted to 0.324 ± 0.099.
With KRCPSCQAPIEKNEGYLHMTCAKCNHGFCWRCLKSWKPNHKD [C16Y], the abundance fitness was -0.032 ± 0.15.
As for KRCPSCQAPIEKNEGNLHMTCAKCNHGFCWRCLKSWKPNHKD [C16N], the abundance fitness was found to be 0.23 ± 0.13.
With KRCPSCQAPIEKNEGPLHMTCAKCNHGFCWRCLKSWKPNHKD [C16P] the figure was 0.161 ± 0.098; with KRCPSCQAPIEKNEGVLHMTCAKCNHGFCWRCLKSWKPNHKD [C16V], 0.449 ± 0.085; with KRCPSCQAPIEKNEGQLHMTCAKCNHGFCWRCLKSWKPNHKD [C16Q], 0.416 ± 0.091.
With KRCPSCQAPIEKNEGRLHMTCAKCNHGFCWRCLKSWKPNHKD [C16R], the abundance fitness is 0.227 ± 0.073.
With KRCPSCQAPIEKNEGLLHMTCAKCNHGFCWRCLKSWKPNHKD [C16L] the figure was -0.115 ± 0.084; with KRCPSCQAPIEKNEGSLHMTCAKCNHGFCWRCLKSWKPNHKD [C16S], 0.422 ± 0.083; with KRCPSCQAPIEKNEGWLHMTCAKCNHGFCWRCLKSWKPNHKD [C16W], -0.121 ± 0.09.
In the case of KRCPSCQAPIEKNEGGLHMTCAKCNHGFCWRCLKSWKPNHKD [C16G] it was 0.55 ± 0.069; in that of KRCPSCQAPIEKNEGHLHMTCAKCNHGFCWRCLKSWKPNHKD [C16H], 0.105 ± 0.14.
Take KRCPSCQAPIEKNEGFLHMTCAKCNHGFCWRCLKSWKPNHKD [C16F]: the abundance fitness was -0.149 ± 0.15.
In the case of KRCPSCQAPIEKNEGDLHMTCAKCNHGFCWRCLKSWKPNHKD [C16D] it was 0.544 ± 0.092.
On to KRCPSCQAPIEKNEGILHMTCAKCNHGFCWRCLKSWKPNHKD [C16I], for which the abundance fitness came out at 0.444 ± 0.16.
In the case of KRCPSCQAPIEKNEGMLHMTCAKCNHGFCWRCLKSWKPNHKD [C16M] it was 0.202 ± 0.11.
In the case of KRCPSCQAPIEKNEGTLHMTCAKCNHGFCWRCLKSWKPNHKD [C16T] it was 0.471 ± 0.11; in that of KRCPSCQAPIEKNEGALHMTCAKCNHGFCWRCLKSWKPNHKD [C16A], 0.329 ± 0.079.
